This passage reports Kd results from PMC13292882 (2025).

Assay [1] addresses RPA32 winged-helix domain (RPA32-WH) (amino acids 202-270) (UniProt P15927 202-270). The assay can be described thus: FP.
The target in assay [2] is Proliferating Cell Nuclear Antigen (PCNA) (UniProt P12004 1-261). Briefly: FP.

No end group written: not given here.

Chain of Proliferating Cell Nuclear Antigen (PCNA) (P12004 whole entry): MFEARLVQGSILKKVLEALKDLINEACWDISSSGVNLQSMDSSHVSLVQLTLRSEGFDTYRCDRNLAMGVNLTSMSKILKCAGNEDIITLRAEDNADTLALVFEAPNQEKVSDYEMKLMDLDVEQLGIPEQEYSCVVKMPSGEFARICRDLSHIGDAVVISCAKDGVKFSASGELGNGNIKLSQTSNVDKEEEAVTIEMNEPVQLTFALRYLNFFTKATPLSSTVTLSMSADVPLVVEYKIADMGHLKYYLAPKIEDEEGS
Chain of RPA32 winged-helix domain (RPA32-WH) (amino acids 202-270) (P15927 202-270): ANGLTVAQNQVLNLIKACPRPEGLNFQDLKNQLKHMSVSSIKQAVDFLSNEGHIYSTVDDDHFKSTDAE

Take LTEEQRKKIEENRQKALARRAEKLLA (also: fluorescein-labeled, position not given here) [SMARCAL peptide]: the Kd (commonly the equilibrium constant for the complex coming apart) in assay [1] is 13.5 µM.

As to SAVLQKKITDYFHPKK (also: fluorescein-labeled, position not given here) [Pogo-Ligase peptide], the Kd in assay [2] worked out at 0.051 µM.
